One block for each binder: values may come before it.
Experiments:
Experiment in all cases: pull-down
[1] = target: T1, His6-Vps41 (S. cerevisiae, UniProt P38959 1-992)
T1 sequence: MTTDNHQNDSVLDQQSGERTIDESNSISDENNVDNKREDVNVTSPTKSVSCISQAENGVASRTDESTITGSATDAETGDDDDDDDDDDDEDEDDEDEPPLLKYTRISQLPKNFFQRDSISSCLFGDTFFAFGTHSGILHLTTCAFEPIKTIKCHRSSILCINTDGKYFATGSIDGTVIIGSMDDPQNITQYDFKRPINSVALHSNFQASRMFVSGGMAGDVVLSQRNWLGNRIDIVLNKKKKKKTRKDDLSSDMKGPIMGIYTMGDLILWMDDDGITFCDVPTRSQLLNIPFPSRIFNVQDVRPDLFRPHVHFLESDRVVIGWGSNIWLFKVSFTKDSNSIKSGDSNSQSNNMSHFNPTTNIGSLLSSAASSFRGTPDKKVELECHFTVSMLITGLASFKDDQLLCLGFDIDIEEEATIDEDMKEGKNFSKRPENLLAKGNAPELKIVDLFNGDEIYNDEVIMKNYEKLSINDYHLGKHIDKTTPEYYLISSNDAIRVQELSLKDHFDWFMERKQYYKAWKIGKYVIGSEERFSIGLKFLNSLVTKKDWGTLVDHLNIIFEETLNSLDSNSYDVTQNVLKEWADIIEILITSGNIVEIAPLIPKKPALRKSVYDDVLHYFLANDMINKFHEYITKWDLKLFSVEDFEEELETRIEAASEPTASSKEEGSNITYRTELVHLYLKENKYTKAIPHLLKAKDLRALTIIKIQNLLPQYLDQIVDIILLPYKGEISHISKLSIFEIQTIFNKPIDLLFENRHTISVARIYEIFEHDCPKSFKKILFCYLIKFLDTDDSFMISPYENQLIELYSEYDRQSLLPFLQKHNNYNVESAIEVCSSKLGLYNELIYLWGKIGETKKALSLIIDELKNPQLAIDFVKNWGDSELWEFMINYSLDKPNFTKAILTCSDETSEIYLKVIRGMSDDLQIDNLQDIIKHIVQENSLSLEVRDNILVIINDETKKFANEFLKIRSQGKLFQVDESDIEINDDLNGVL

[2] = target: T2, His6-Vps39–860Δ (S. cerevisiae, UniProt Q07468 1-860)
T2 sequence: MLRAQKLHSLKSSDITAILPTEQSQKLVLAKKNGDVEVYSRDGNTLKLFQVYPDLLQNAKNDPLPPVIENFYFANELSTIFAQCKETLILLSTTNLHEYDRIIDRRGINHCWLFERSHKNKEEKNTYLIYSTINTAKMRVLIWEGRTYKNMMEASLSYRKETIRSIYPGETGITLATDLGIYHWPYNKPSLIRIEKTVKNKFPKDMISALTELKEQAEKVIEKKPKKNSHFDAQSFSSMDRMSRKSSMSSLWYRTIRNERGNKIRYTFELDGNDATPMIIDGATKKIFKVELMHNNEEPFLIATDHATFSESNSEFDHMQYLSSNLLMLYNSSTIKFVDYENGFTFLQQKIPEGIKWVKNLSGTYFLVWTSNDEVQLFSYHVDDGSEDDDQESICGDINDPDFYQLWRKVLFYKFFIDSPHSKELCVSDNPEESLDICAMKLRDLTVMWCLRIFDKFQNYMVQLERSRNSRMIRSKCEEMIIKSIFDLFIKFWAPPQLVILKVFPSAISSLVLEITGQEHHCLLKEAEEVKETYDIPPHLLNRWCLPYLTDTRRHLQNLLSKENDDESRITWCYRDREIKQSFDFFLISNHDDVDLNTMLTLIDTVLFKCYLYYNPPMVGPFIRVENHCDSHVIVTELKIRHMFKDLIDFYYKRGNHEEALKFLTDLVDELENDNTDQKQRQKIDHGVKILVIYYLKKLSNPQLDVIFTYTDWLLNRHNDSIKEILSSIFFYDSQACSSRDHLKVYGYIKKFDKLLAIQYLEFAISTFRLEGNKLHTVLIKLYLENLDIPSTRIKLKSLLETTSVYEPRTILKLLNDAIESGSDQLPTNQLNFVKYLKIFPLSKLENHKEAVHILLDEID

[3] = target: T3, His6-Vps3 (S. cerevisiae, UniProt P23643 1-1011)
T3 sequence: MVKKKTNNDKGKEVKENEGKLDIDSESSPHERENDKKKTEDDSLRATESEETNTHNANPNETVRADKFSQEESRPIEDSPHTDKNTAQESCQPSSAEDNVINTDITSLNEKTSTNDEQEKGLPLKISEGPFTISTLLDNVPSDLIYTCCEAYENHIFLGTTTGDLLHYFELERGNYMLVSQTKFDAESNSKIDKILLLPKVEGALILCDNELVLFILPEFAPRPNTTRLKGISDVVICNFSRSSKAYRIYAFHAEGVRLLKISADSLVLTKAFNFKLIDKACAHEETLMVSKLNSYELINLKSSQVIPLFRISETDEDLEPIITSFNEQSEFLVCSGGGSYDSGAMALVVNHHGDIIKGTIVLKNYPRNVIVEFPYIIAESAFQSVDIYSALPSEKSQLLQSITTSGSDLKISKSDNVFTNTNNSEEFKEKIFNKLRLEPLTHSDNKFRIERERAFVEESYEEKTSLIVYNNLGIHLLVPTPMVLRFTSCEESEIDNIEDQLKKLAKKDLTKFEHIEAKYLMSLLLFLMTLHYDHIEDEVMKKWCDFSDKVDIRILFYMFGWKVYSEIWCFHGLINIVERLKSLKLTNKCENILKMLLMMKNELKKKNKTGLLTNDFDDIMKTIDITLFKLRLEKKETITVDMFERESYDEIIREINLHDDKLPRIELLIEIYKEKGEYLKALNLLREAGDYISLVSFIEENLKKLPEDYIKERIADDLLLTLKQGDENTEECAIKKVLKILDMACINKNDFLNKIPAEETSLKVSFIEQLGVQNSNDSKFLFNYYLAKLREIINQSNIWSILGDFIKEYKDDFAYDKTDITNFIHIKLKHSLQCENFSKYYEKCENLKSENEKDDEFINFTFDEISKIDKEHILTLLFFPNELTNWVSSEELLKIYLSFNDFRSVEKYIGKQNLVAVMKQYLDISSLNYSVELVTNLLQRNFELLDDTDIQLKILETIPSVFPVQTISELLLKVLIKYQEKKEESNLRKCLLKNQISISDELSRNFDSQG

binding result [1]: binds | binding result [2]: binds
B1: GST-Ypt7 (natural protein)
chain: MSSRKKNILKVIILGDSGVGKTSLMHRYVNDKYSQQYKATIGADFLTKEVTVDGDKVATMQVWDTAGQERFQSLGVAFYRGADCCVLVYDVTNASSFENIKSWRDEFLVHANVNSPETFPFVILGNKIDAEESKKIVSEKSAQELAKSLGDIPLFLTSAKNAINVDTAFEEIARSALQQNQADTEAFEDDYNDAINIRLDGENNSCSC

binding result [3]: binds
B2: GST-Vps21 (natural protein)
chain: MNTSVTSIKLVLLGEAAVGKSSIVLRFVSNDFAENKEPTIGAAFLTQRVTINEHTVKFEIWDTAGQERFASLAPMYYRNAQAALVVYDVTKPQSFIKARHWVKELHEQASKDIIIALVGNKIDMLQEGGERKVAREEGEKLAEEKGLLFFETSAKTGENVNDVFLGIGEKIPLKTAEEQNSASNERESNNQRVDLNAANDGTSANSACSC

Source: paper PMC3078060 (Molecular Biology of the Cell, 2011)
